Consider 2 variants from PMC4906247 (2016).

B1: WT hDAPK2 expressed in HEK293T cells (CaM pull-down from lysate) [human] / calcium/calmodulin on Sepharose 4B (Sepharose 4B-CaM) [not stated] (parent complex)
chain 1: MFQASMRSPNMEPFKQQKVEDFYDIGEELGSGQFAIVKKCREKSTGLEYAAKFIKKRQSRASRRGVSREEIEREVSILRQVLHHNVITLHDVYENRTDVVLILELVSGGELFDFLAQKESLSEEEATSFIKQILDGVNYLHTKKIAHFDLKPENIMLLDKNIPIPHIKLIDFGLAHEIEDGVEFKNIFGTPEFVAPEIVNYEPLGLEADMWSIGVITYILLSGASPFLGDTKQETLANITAVSYDFDEEFFSQTSELAKDFIRKLLVKETRKRLTIQEALRHPWITPVDNQQAMVRRESVVNLENFRKQYVRRRWKLSFSIVSLCNHLTRSLMKKVHLRPDEDLRNCESDTEEDIARRKALHPRRRSSTS
chain 2: not shown

In the assay the parent is B1. The assay can be described thus: CaM pull-down from HEK293T cell lysate, western blot; HEK293T transfected cells; EGTA-mediated elution on Sepharose 4B-CaM; read off a plot. Background: Immunoblotting shows a protein as a band on a membrane.
As for chain 1 R57E, chain 1 R60E, chain 1 R63E, chain 1 R64E, chain 1 W315D, the response is ~0.42 relative unit (normalized to W305D). As for chain 1 W315D, the figure is ~1 relative unit (normalized to W305D).
